Tests used:
[1] = molecular target: LRR of ANP32A alone (not stated (human and Gallus gallus ANP32A were used)); assay: NMR titration
[2] = molecular target: full-length avian ANP32A (Gallus gallus) (Gallus gallus); assay: NMR titration

Row | Substance | Kd [1] [µM] | Kd [2] [µM]
1 | the 627 domain (E627 or K627 not stated) (domain or fragment) | > 1500 | –
2 | 627-NLS domains of PB2, E627 form (amino acids 538-759, avian H5N1 A/duck/Shantou/4610/2003) (domain or fragment) | – | > 3000
